Source: patent US10221404B2, “Method for modifying characteristics of a lipase” (Novozymes A/S, priority 2014, dated 2019)

Legend:
[1] = AMSA wash performance, specificity of inhibitory effect of propeptide; conditions: for With inhibitor RP (wash): propeptide SEQ ID No: 4 in 320:1 molar ratio, 3 hours at 4° C., normalized to wash performance without inhibitor; for No inhibitor RP (wash): without propeptide SEQ ID No: 4, normalized per lipase
Method: (§1) Washing experiments were performed using Automatic Mechanical Stress Assay (AMSA) in order to assess the wash performance in laundry. The AMSA plate has a number of slots for test solutions and a lid firmly squeezing the laundry sample, the textile to be washed against all the slot openings. During the washing time, the plate, test solutions, textile and lid were vigorously shaken to bring the test solution in contact with the textile and apply mechanical stress in a regular, periodic oscillating manner. For further description see WO02/42740 especially the paragraph “Special method embodiments” at page 23-24.
(§2) The laundry experiments were conducted in Model Detergent B, pH8. The experimental conditions are specified below:
(§3) Final adjustments to the specified pH were done with NaOH or citric acid. Water hardness was adjusted to 15° dH by addition of CaCl2 and MgCl2 (Ca^2+:Mg^2+=4:1) to the test system.
(§4) After washing the textiles were flushed in tap water and excess water was removed from the textiles using filter paper and immediately thereafter the textiles were dried at 85° C. for 5 min.
(§5) The wash performance was measured as the color change of the washed soiled textile. The soil was cream mixed with turmeric. Turmeric contains the colorant curcumin, which function as a pH indicator by having pH dependent color change. Lipase activity leads to release of free fatty acids from the cream acylglycerides and this leads to pH decrease and thereby color change of the curcumin pH indicator. Lipase wash performance can therefore be expressed as the extent of color change of light reflected-emitted from the washed soiled textile when illuminated with white light.
(§6) Color measurements were made with a professional flatbed scanner (EPSON EXPRESSION 10000XL, Atea NS, Lautrupvang 6, 2750 Ballerup, Denmark), which was used to capture an image of the washed soiled textile. To extract a value for the light intensity from the scanned images, 24-bit pixel values from the image were converted into values for red, green and blue (RGB).
(§7) Color change due to lipase activity was measured as the increase in the reflection-emitting of green light (G) relative to the sum of reflected-emitted blue (B) and red (R) light. The wash performance (RP(Wash)) of a lipase relative to a reference lipase (Lipolase™) was calculated as: RP(Wash)=(G/(B+R)(tested lipase)−G/(B+R)(no enzyme))/(G/(B+R)(lipase ref.)−G/(B+R)(no enzyme)).
The inhibitory specificity of the isolated propeptide was determined by mixing the isolated propeptide in a 320:1 molar ratio with 5 different lipases including the active RmL. All enzymes were diluted in 10 mM succinic acid buffer, pH6.5, to a concentration of 1.5 uM and were mixed (1:1) with purified propeptide dilutions. After 3 hours incubation at 4° C. the lipase performance of the incubated lipase-inhibitor samples were determined by Automatic Mechanical Stress Assay (AMSA) as described above. The relative wash performance “RP(wash)” is for each lipase normalized to the wash performance without inhibitor.

[2] = Hydrolytic activity, kinetic assay with p-nitrophenyl acyl esters; type: biochemical; conditions: substrates C3, C6, C10, C12, C16 at 1 mM; 50 mM Tris pH 7.7, 0.4% TritonX-100; 405 nm for 5 minutes
Method: The hydrolytic activity of RmL with and without propeptide on various fatty acids was investigated in a kinetic assay using p-nitrophenyl acyl esters as substrate. The 100 mM stock solutions in DMSO of the substrates: p-Nitrophenyl butyrate (C3), p-Nitrophenyl caproate (C6), p-Nitrophenyl caprate (C10), p-Nitrophenyl laurate (C12) and p-Nitrophenyl palmitate (C16) (all from Sigma-Aldrich Danmark NS, Kirkebjerg Allé 84, 2605 Brondby; Cat. no.: C3:N-9876, C6: N-0502, C10: N-0252, C12: N-2002, C16: N-2752) were diluted to a final concentration of 1 mM into assay buffer (50 mM Tris; pH 7.7; 0.4% TritonX-100).
RmL with and without propeptide and appropriate controls: Buffer (negative), Lipex™ (positive) RmL with and without propeptide in 50 mM Hepes pH8.0; 10 ppm TritonX-100; 20 mM CaCl2 were added to the substrate solution in the following final concentrations: 0.01 mg/mL; 5×10^−3 mg/mL; […]; and 1.25×10^−4 mg/mL in 96-well NUNC plates (Cat. No: 260836, Kamstrupvej 90, DK-4000, Roskilde). Release of p-nitrophenol by hydrolysis of p-nitrophenyl acyl was monitored at 405 nm for 5 minutes in 10 second intervals on a Spectra max 190 (Molecular Devices GmbH, Bismarckring 39, 88400 Biberach an der Riss, GERMANY).

[3] = AMSA wash performance after activation with detergent and/or protease; parameters: key to No (RP) / Det (RP) / Sav (RP) / Det + Sav (RP): wash performance relative to reference lipase (Lipolase), RP ratio
Method: as §1, §2, §3, §4, §5, §6, §7
Wild type RmL without or with propeptide respectively were submitted to no, detergent, protease or detergent+protease treatment prior to performance test in AMSA to test the activation level of the lipase after the treatment. […] […] Wash performance of all samples were determined by Automatic Mechanical Stress Assay (AMSA) as described above.

B1: SEQ ID NO: 6 (MuciLip2CN): lipase of SEQ ID NO: 6, tested for propeptide specificity (protein)
chain: MVSFVSISQGISLFIVVSSMLTGSAHAAPASSHSNSSKNATTSDASTFTLPPIISSRVTPPKVPSGSHNVEDANVAKNKKWFEAHGGKLNVTKRADETVGGYTMDLPSNAPPLPAVPSTSTVVIASTAQISEFKKYAGIASTAYCRSVVPLNQWSCTNCLKFVPDGKLIKTFTSLVTDTNGFVLRSDAQKTIYVVFRGTNSIRSAITDLVFELTNYTPVSGAKVHTGFYASYKAVVSDYFPAVQSQLTAYPGYKVIVTGHSLGGAQALLAGMDLYQREPRLSKSNLAIYTVGCPRVGNPAFAYYVDSTGITFSRSVNNRDIVPHVPPQAWGFLHPGVEAWARSSSNVQICTPNIETGLCSNSIVPFTSFTDHLTYYDLNEGLCL
modifications: Mucor circinelloides
With inhibitor RP (wash) [1]: 1.10 | No inhibitor RP (wash) [1]: 1.00

B2: isolated propeptide: propeptide of RmL, amino acid sequence SEQ ID No: 4, purified from RmL (protein, listed as Rhizomucor miehei)
chain: VPIKRQSNSTVDSLPPLIPSRTSAPSSSPSTTDPEAPAMSRNGPLPSDVETKYGMALNATSYPDSVVQAM
inhibitory specificity of the isolated propeptide ([1]; 320:1 molar ratio with different lipases): exclusively effect with RmL

B3: SEQ ID NO: 7 (RhimiLip1): lipase of SEQ ID NO: 7, tested for propeptide specificity (protein)
chain: MVSFISISQGVSLCLLVSSMMLGSSAVPVAGHKGSVKATNGTDFQLPPLISSRCTPPSHPETTGDPDAEAYYINKSVQWYQAHGGNYTALIKRDTETVGGMTLDLPENPPPIPATSTAPSSDSGEVVTATAAQIKELTNYAGVAATAYCRSVVPGTKWDCKQCLKYVPDGKLIKTFTSLLTDTNGFILRSDAQKTIYVTFRGTNSFRSAITDMVFTFTDYSPVKGAKVHAGFLSSYNQVVKDYFPVVQDQLTAYPDYKVIVTGHSLGGAQALLAGMDLYQREKRLSPKNLSIYTVGCPRVGNNAFAYYVDSTGIPFHRTVHKRDIVPHVPPQAFGYLHPGVESWIKEDPADVQICTSNIETKQCSNSIVPFTSIADHLTYFGINEGSCL
modifications: Rhizopus microsporus var. chinensis
With inhibitor RP (wash) [1]: 0.92 | No inhibitor RP (wash) [1]: 1.00

B4: SEQ ID NO: 5 (Lipex): commercial lipase product Lipex (Novozymes A/S), SEQ ID NO: 5 (protein, listed as Thermomyces lanuginosus)
chain: EVSQDLFNQFNLFAQYSAAAYCGKNNDAPAGTNITCTGNACPEVEKADATFLYSFEDSGVGDVTGFLALDNTNKLIVLSFRGSRSIENWIGNLNFDLKEINDICSGCRGHDGFTSSWRSVADTLRQKVEDAVREHPDYRVVFTGHSLGGALATVAGADLRGNGYDIDVFSYGAPRVGNRAFAEFLTVQTGGTLYRITHTNDIVPRLPPREFGYSHSSPEYWIKSGTLVPVRRRDIVKIEGIDATGGNNQPNIPDIPAHLWYFGLIGTCL
With inhibitor RP (wash) [1]: 0.89 | No inhibitor RP (wash) [1]: 1.00

B5: RmL with propeptide: Rhizomucor miehei lipase with its native N-terminal propeptide non-covalently bound (inactive RmL) (protein, UniProt P19515 25-363, looked up)
pro-form: VPIKRQSNSTVDSLPPLIPSRTSAPSSSPSTTDPEAPAMSRNGPLPSDVETKYGMALNATSYPDSVVQAMSIDGGIRAATSQEINELTYYTTLSANSYCRTVIPGATWDCIHCDATEDLKIIKTWSTLIYDTNAMVARGDSEKTIYIVFRGSSSIRNWIADLTFVPVSYPPVSGTKVHKGFLDSYGEVQNELVATVLDQFKQYPSYKVAVTGHSLGGATALLCALDLYQREEGLSSSNLFLYTQGQPRVGDPAFANYVVSTGIPYRRTVNERDIVPHLPPAAFGFLHAGEEYWITDNSPETVQVCTSDLETSDCSNSIVPFTSVLDHLSYFGINTGLCT
modifications: pro-form
hydrolytic activity on p-nitrophenyl acyl esters [2]: no activity | Sav (RP) ([3]; 10 minutes in 1.35% (v/v) Savinase in 10 mM succinic acid pH6.5): 0.27 | Det + Sav (RP) ([3]; 10 minutes in 1.35% (v/v) Savinase in 77% (w/w) Detergent B): 0.88 | Det (RP) ([3]; 10 minutes in 77% (w/w) Model detergent B): 0.60 | No (RP) ([3]; 60 minutes in 10 mM succinic acid pH6.5): 0.18 | Sav (RP) ([3]; 60 minutes in 1.35% (v/v) Savinase in 10 mM succinic acid pH6.5): 0.39 | Det + Sav (RP) ([3]; 60 minutes in 1.35% (v/v) Savinase in 77% (w/w) Detergent B): 0.85 | Det (RP) ([3]; 60 minutes in 77% (w/w) Model detergent B): 0.69 | activation level of the lipase ([3]; Savinase treatment in detergent, after 10 minutes): full activation
